Laboratory results published in US20090074722A1, “Products and methods for treating PTP lar diseases” (MAX-PLANCK-GESELLSCHAFT ZUR, priority 1999, published 2009).

Target: T1, tyrosine phosphorylated β-catenin (Homo sapiens, UniProt P35222)
T1 construct: expressed in transfected cells; host or cells: human 293 embryonic kidney cells, transient; CMV-promoter vector; immunoprecipitated with anti-β-catenin antibody
T1 sequence (P35222 1-781): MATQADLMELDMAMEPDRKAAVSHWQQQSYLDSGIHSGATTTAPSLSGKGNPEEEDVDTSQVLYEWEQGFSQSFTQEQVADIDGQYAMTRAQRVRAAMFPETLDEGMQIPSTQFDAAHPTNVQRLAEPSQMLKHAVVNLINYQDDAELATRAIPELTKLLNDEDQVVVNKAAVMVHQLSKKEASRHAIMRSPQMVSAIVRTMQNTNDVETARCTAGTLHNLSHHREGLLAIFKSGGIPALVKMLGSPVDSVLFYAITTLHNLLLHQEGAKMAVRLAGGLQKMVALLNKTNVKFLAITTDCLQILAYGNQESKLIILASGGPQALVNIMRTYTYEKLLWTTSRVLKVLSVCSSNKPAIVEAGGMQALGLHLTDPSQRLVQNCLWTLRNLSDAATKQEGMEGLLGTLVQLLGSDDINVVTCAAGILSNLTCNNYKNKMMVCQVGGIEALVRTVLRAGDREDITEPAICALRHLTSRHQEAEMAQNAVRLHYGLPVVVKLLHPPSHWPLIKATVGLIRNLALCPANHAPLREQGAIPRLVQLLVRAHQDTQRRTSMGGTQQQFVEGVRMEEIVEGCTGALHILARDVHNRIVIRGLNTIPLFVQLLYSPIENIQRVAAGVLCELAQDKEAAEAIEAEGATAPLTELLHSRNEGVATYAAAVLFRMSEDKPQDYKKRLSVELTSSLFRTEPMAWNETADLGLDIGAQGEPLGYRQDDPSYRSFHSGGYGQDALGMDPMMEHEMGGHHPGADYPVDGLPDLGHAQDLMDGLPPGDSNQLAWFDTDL
Assay: In vitro dephosphorylation assay
Type: biochemical
Conditions: 200 ng GST fusion protein, 25° C.; within the first five minutes; anti-phosphotyrosine Western blot
Procedure: After 24 h of serum starvation, the cells were stimulated with pervanadate before lysis. β-catenin was subsequently immunoprecipitated with an anti-β-catenin antibody, and precipitates were incubated for the indicated time intervals with GST-PTP LAR cytoplasmic fusion protein (left), GST-PTP LAR PTP D1 C1522S-mutant (middle) or GST-PTP LAR PTP D2 C1813S-mutant (right). Reactions were terminated after the indicated periods of time, and proteins were separated by SDS-PAGE. Tyrosine phosphorylation levels of […] were analyzed by Western blotting with an anti-phosphotyrosine antibody (top). […] Arrows indicate the proteins of interest.
In Vitro Dephosphorylation Assay—β-catenin was transiently overexpressed in human 293 embryonic kidney cells. Cells were serum-starved, treated with pervanadate ([…]/0.1 mM Na-orthovanadate) for 10 minutes and lysed. Immunoprecipitations were performed as described above except that HNTG without pyrophosphate, ammonium-molybdate, and Na-orthovanadate was used. PTP activity towards tyrosine phosphorylated β-catenin was assayed in 200 μL reactions at 25° C. containing 25 mM HEPES, pH 7.5, 5 mM EDTA, 10 mM DTT, and 1 mg/mL BSA with 200 ng of GST-hPTP LAR cytoplasmic, GST-hPTP LAR D1 C1522S, or GST-hPTP LAR D2 C1813S added. Reactions were stopped by washing with HNTG and subsequently separated by SDS-PAGE. The tyrosine phosphorylation status was analyzed by Western blotting using anti-phosphotyrosine antibody.
The association of β-catenin and plakoglobin with PTP LAR prompted the investigation of whether these proteins could represent actual substrates for PTP LAR. […] After different time intervals, the reactions were terminated and analyzed with an anti-phosphotyrosine specific antibody.

B1: GST-PTP LAR cytoplasmic: GST fusion protein comprising the entire cytoplasmic domain (amino acids 1259-1881) of human PTP LAR (protein)
chain: PEMLWVTGPVLAVILIILIVIAILLFKRKRTHSPSSKDEQSIGLKDSLLAHSSDPVEMRRLNYQTPGMRDHPPIPITDLADNIERLKANDGLKFSQEYESIDPGQQFTWENSNLEVNKPKNRYANVIAYDHSRVILTSIDGVPGSDYINANYIDGYRKQNAYIATQGPLPETMGDFWRMVWEQRTATVVMMTRLEEKSRVKCDQYWPARGTETCGLIQVTLLDTVELATYTVRTFALHKSGSSEKRELRQFQFMAWPDHGVPEYPTPILAFLRRVKACNPLDAGPMVVHCSAGVGRTGCFIVIDAMLERMKHEKTVDIYGHVTCMRSQRNYMVQTEDQYVFIHEALLEAATCGHTEVPARNLYAHIQKLGQVPPGESVTAMELEFKLLASSKAHTSRFISANLPCNKFKNRLVNIMPYELTRVCLQPIRGVEGSDYINASFLDGYRQQKAYIATQGPLAESTEDFWRMLWEHNSTIIVMLTKLREMGREKCHQYWPAERSARYQYFVVDPMAEYNMPQYILREFKVTDARDGQSRTIRQFQFTDWPEQGVPKTGEGFIDFIGQVHKTKEQFGQDGPITVHCSAGVGRTGVFITLSIVLERMRYEGVVDMFQTVKTLRTQRPAM
  tyrosine phosphorylation signal of β-catenin: significant reduction in the tyrosine phosphorylation signal
